Source: patent US7138262B1, “High mannose proteins and methods of making high mannose proteins” (Shire Human Genetic Therapies, Inc., priority 2000, dated 2006)

B1: GA-GCB from kifunensine treated cells: unpurified gene-activated glucocerebrosidase from HT-1080 cells treated with kifunensine (1 μg/mL) (protein)
chain: ARPCIPKSFGYSSVVCVCNATYCDSFDPPTFPALGTFSRYESTRSGRRMELSMGPIQANHTGTGLLLTLQPEQKFQKVKGFGGAMTDAAALNILALSPPAQNLLLKSYFSEEGIGYNIIRVPMASCDFSIRTYTYADTPDDFQLHNFSLPEEDTKLKIPLIHRALQLAQRPVSLLASPWTSPTWLKTNGAVNGKGSLKGQPGDIYHQTWARYFVKFLDAYAEHKLQFWAVTAENEPSAGLLSGYPFQCLGFTPEHQRDFIARDLGPTLANSTHHNVRLLMLDDQRLLLPHWAKVVLTDPEAAKYVHGIAVHWYLDFLAPAKATLGETHRLFPNTMLFASEACVGSKFWEQSVRLGSWDRGMQYSHSIITNLLYHVVGWTDWNLALNPEGGPNWVRNFVDSPIIVDITKDTFYKQPMFYHLGHFSKFIPEGSQRVGLVASQKNDLDAVALMHPDGSAVVVVLNRSSKDVPLTIKDPAVGFLETISPGYSIHTYLWRRQ
B2: hmGCB: glucocerebrosidase having at least one carbohydrate chain having four or more mannose residues from a precursor oligosaccharide (protein)
chain: B1 chain
B3: GA-GCB from swainsonine treated cells: unpurified gene-activated glucocerebrosidase from HT-1080 cells treated with swainsonine (1 μg/mL) (protein)
chain: B1 chain
B4: GA-GCB from untreated cells: unpurified gene-activated glucocerebrosidase from HT-1080 cells without drug treatment (protein)
chain: B1 chain

Tested on: mouse J774E cells
Experiment: Internalization (uptake) of glucocerebrosidase into J774E macrophage cells, with or without mannan
Assay type: cell-based
Conditions: for Glucocerebrosidase Activity, Absolute / Glucocerebrosidase Activity, Background Corrected / uptake of GA-GCB over background: GA-GCB 10 μg/mL; for Glucocerebrosidase Activity, Absolute: 4 hours at 37° C.; for Glucocerebrosidase Activity, Background Corrected / uptake of GA-GCB over background: 4 hours; for Inhibition (%) of uptake by mannan: mannan 2 μg/mL, competitor for the mannose receptor
Method: GA-GCB produced in HT-1080 cells was used in an in vitro assay to determine uptake efficiency in a mouse macrophage cell line. The specific objective of the experiment was to determine the absolute and mannose receptor-specific uptake of GA-GCB in mouse J774E cells. One day prior to assay, J774E cells were plated at 50,000 cells/cm^2 in 12 well plates in Growth Medium. For the assay, 0.5 mL of Production Medium (DMEM/F12), 0% calf serum) containing 50 nM vitamin D3 (1,2-5, Dihydroxy vitamin D3) was added to the cells. Unpurified GA-GCB (from harvest 4, Table 1) was added to the test wells at a final concentration of 10 μg/mL in the presence or absence of 2 μg/mL mannan (a competitor for the mannose receptor). Three different forms of GA-GCB were used: GA-GCB from cells treated with kifunensine (1 μg/mL), GA-GCB from cells treated with swainsonine (1 μg/mL), and GA-GCB (1 μg/mL) from untreated cells. Control wells received no GA-GCB. The wells were incubated for 4 hours at 37° C., then washed extensively in buffered saline, scraped into GA-GCB enzyme reaction buffer, passed through 2 freeze/thaw cycles, and clarified by centrifugation. The supernantant was then quantitatively tested for enzyme activity and total protein. Internalization of GA-GCB into mouse J744E cells is shown in Table 2 and is reported as Units/mg of cell lysate. […] Thus, the inhibition of intracellular mannosidases by either kifunensine or swainsonine results in GA-GCB that can be transported into cells efficiently via the mannose receptor, with kifunensine causing an approximately 2-fold greater uptake than swainsonine. Improvement in targeting of GA-GCB to cells via mannose receptors can therefore be optimized by production of GA-GCB in the presence of kifunensine or swainsonine.

Molecule	Glucocerebrosidase Activity, Absolute (+ mannan 2 μg/mL) [Units/mg cell lysate]	Glucocerebrosidase Activity, Absolute (without mannan) [Units/mg cell lysate]	Glucocerebrosidase Activity, Background Corrected (+ mannan 2 μg/mL) [Units/mg cell lysate]	Glucocerebrosidase Activity, Background Corrected (without mannan) [Units/mg cell lysate]	uptake of GA-GCB over background (without mannan)	Inhibition (%) of uptake by mannan [%]	hmGCB uptake by macrophages compared to uptake of GCB secreted from cells (summary statement)
B1	2977	9185	2322	8530	14 fold	73	–
B2	–	–	–	–	–	–	increased
B3	2036	4787	1381	4132	7 fold	67	–
B4	1678	2816	1023	2161	approximately 3 fold	53	–
